Usually EC50 stands for the concentration giving half of the maximal effect.

From patent US20250136687A1 (SHANDONG SIMCERE BIOPHARMACEUTICAL, published 2025) come the findings set out here.

Assay [1] deals with T1, human CD3 on the cell surface (Jurkat cells, expanded human T cells, Jurkat-Lucia NFAT cells, human PBMC) (human, UniProt P07766 23-207; P04234 22-171; P09693 23-182).
T1 construct: whole, on cells; Endogenous CD3 within the TCR-CD3 complex on cells (also zeta chains and TCR); the cell type is named under assay
As to the kind of experiment: FACS, Jurkat cells. On the procedure: Suspension cells Jurkat cells (purchased from Cell bank of Chinese Academy of Sciences) were scale-up cultured in T-175 cell culture flasks to the logarithmic growth phase, the supernatant of the medium was discarded by centrifugation, and the cell pellet was washed 2 times with PBS. After counting the cells in the previous step, the cell pellet was resuspended with [PBS+2% (w/v) FBS] blocking solution to 4×10⁶ cells/ml, and added to a 96-well FACS reaction plate at 50 μl/well, the supernatant was removed by centrifugation, detection antibodies (initial concentration of […], gradient dilution at 1:5) and an IgG negative control were added at 100 μl/well, the cells were uniformly mixed, and incubated on ice for 1 h. The cells were centrifuged and washed 3 times with a PBS buffer. […] The cells were centrifuged and washed 5 times with a PBS buffer, and FACS (FACS Canto II, purchased from BD Company) was used for detection and result analysis. Data analysis was performed by software (CellQuest) to obtain the mean fluorescence intensity (MFI) of the cells. And then software (GraphPad Prism8) was used for analysis, data fitting, and EC50 value calculation.
(In general: A flow cytometer gives signals particle by particle.)

For assay [2], the target named is T1, human CD3 on the cell surface (Jurkat …). Put plainly: FACS, Jurkat cells. Here is the method: (§1) The binding of the chimeric antibodies to CD3 on the cell surface was analyzed by detecting the binding of the antibodies to Jurkat cells and human T cells. Suspension cells Jurkat cells were scale-up cultured in T-75 cell culture flasks to the logarithmic growth phase, the supernatant of the medium was discarded by centrifugation, and the cell pellet was washed 2 times with PBS for later use. The expanded human T cells were washed 2 times with PBS for later use. After counting the cells in the previous step, the cell pellet was resuspended with [PBS+2% (w/w) BSA] blocking solution to 4×10⁶ cells/ml, and added to a 96-well FACS reaction plate at 50 μl/well, and then the chimeric antibody to be tested was added at 50 μl/well, and incubated at 4° C. for 1 h. The cells were centrifuged and washed 3 times with a PBS buffer. […] The cells were centrifuged and washed 5 times with PBS, and FACS (FACS Canto™, purchased from BD Company) was used for detection and result analysis. Data analysis was performed by software (CellQuest) to obtain the mean fluorescence […] (MFI) of the cells. And then software (GraphPad Prism8) was used for analysis, data fitting, and EC50 value calculation. The same method was used to simultaneously detect the binding of the chimeric antibodies to endogenous CD3 negative cells MOLT4 cells.
This is another data set of the same source.

For assay [3] the target is unchanged. Put plainly: FACS, expanded human T cells.
Assay [4] has the same target. Put plainly: FACS, expanded human T cells. On the procedure: as §1
This is another data set of the same source.

In assay [5] the target is T2, cynomolgus monkey CD3 on the surface of expanded monkey T cells (cynomolgus monkey, UniProt Q95LI5 22-198; Q95LI8 22-171; Q95LI7 23-181).
T2 construct: whole, on cells; Endogenous CD3 within the TCR-CD3 complex on T cells expanded from cynomolgus monkey PBMC
As to the kind of experiment: FACS, expanded monkey T cells.

Assay [6] addresses T2, cynomolgus monkey CD3 on the surface of …. As to the kind of experiment: FACS, expanded monkey T cells. On the procedure: as §1
FACS detection and data analysis were performed on the cryopreserved monkey T cells of Example 2.4 according to the method in Example 5.1.
The source holds these as a separate data set.

Read-outs that look alike come from different tables or passages of the source.

T1 sequence (P07766 23-207, chain 1 of 3): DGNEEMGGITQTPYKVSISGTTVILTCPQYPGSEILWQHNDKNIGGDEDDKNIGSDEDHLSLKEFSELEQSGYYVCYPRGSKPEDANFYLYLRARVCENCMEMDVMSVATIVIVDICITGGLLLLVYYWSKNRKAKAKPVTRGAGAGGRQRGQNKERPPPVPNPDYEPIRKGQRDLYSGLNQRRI
T1 sequence (P04234 22-171, chain 2 of 3): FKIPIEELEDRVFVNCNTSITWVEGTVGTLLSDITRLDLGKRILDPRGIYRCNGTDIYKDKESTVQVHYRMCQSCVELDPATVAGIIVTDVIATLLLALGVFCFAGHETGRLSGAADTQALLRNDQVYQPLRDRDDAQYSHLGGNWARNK
T1 sequence (P09693 23-182, chain 3 of 3): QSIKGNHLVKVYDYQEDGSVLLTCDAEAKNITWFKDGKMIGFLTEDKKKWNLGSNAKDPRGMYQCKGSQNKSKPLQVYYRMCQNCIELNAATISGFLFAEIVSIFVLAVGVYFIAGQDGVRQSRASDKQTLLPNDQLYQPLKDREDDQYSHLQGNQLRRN
T2 sequence (Q95LI5 22-198, chain 1 of 3): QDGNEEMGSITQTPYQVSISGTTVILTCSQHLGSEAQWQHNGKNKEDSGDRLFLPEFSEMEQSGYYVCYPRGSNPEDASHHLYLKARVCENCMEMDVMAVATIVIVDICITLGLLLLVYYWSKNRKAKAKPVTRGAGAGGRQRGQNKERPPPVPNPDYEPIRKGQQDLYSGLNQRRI
T2 sequence (Q95LI8 22-171, chain 2 of 3): as the sequence (P04234 22-171, chain 2 of 3) above, with I5V, N15K, I20V, S32T, D33N, I34N, T64A, S74N, V83L, H141R counted along it
T2 sequence (Q95LI7 23-181, chain 3 of 3): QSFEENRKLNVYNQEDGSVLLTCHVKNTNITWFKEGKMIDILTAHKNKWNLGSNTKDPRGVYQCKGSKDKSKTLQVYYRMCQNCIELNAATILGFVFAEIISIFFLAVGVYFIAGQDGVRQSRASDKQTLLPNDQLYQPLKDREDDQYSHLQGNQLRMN

B1: SP34-hIgG1 (antibody)
heavy: not shown
light: QAVVTQESALTTSPGETVTLTCRSSTGAVTTSNYANWVQEKPDHLFTGLIGGTNKRAPGVPARFSGSLIGDKAALTITGAQTEDEAIYFCALWYSNLWVFGGGTKLTVLRTVAAPSVFIFPPSDEQLKSGTASVVCLLNNFYPREAKVQWKVDNALQSGNSQESVTEQDSKDSTYSLSSTLTLSKADYEKHKVYACEVTHQGLSSPVTKSFNRGEC
notes: Positive control
With B1, the EC50 in assay [1] worked out at 450 pM; in assay [2] it was 130 pM; in assay [3], 2540 pM; in assay [4], 430 pM; in assay [5], 490 pM; in assay [6] it was 270 pM. For the same molecule, the MFI_Max in assay [2] amounted to 7020 MFI; in assay [4], 43100 MFI; in assay [6] it was 64700 MFI.
